Reference: patent publication US20230321287A1, “RADIOLABELLED GRPR-ANTAGONIST FOR USE AS THERAGNOSTIC” (NOVARTIS AG, priority 2019, published 2023)

Legend:
[1] = clinical; conditions: for tissue uptake at 1 h / tissue uptake at 2 h / tissue uptake at 4 h / tissue uptake at 0.25 h: human, Relative radiotracer uptake
From the text: The primary objective was to characterize preliminary targeting properties of [68Ga] NeoB in patients with malignancies known to overexpress GRPR. The primary efficacy endpoints were: • Number and location of tumor lesions detected by [68Ga]-NeoBOMB1 overall and for each tumor type • Calculation of the ratio tumor/background standard uptake value (SUV) and %injected dose per gram of tissue (ID/g) and calculation of absorbed dose (mGy/MBq) in tumor overall and for each tumor type.
Accordingly, highest relative tracer uptake following administration of a bombesin antagonist is expected in pancreas, kidney, and liver (Roivainen et al, 2013).

[2] = clinical; conditions: human
From the text: To obtain SUVmean aorta, a spherical volume with a diameter of two (2) cm should be measured within the aortic arch. All SUVr values above one (1) are considered as positive GRPR overexpression.
SUVr is the ratio between SUV mean of each lesion detected by [^68Ga]-NeoBOMB1 and the SUVmean of the region of reference.

[3] = target: T1, GRPR (Homo sapiens, UniProt P30550); conditions: non-clinical models; cited from earlier work
T1 sequence (P30550 whole entry, species assumed): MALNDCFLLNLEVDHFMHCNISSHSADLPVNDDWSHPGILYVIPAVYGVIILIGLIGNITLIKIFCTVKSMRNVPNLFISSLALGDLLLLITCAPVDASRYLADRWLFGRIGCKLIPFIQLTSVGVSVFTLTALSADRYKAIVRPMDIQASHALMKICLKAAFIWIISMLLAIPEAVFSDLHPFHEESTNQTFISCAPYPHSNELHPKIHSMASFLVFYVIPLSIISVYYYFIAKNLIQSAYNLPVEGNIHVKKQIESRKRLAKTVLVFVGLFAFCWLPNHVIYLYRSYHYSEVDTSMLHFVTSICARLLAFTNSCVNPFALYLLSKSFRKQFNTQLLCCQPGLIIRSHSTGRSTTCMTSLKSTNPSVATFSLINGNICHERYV

[4] = target: T1, GRPR; conditions: GRPR expressed in breast, prostate and GIST; non-clinical models; cited from earlier work
[5] = in vivo

CC(C)CC(CC(C)C)NC(=O)[C@H](Cc1cnc[nH]1)NC(=O)CNC(=O)[C@@H](NC(=O)[C@H](C)NC(=O)[C@H](Cc1c[nH]c2ccccc12)NC(=O)[C@H](CCC(N)=O)NC(=O)[C@@H](Cc1ccccc1)NC(=O)COCC(=O)Nc1ccc(CNC(=O)CN2CCN(CC(=O)O)CCN(CC(=O)O)CCN(CC(=O)O)CC2)cc1)C(C)C [[68Ga]-NeoB, metal not drawn]
tissue uptake at 1 h ([1]; tumor lesion T4-liverR1, total radioactivity, patient FR01-009, tumor lesion T4-liverR1, 60 min/60.7 min actual): 0.014 %ID/g
tissue uptake at 2 h ([1]; tumor lesion T4-liverR1, total radioactivity, patient FR01-009, tumor lesion T4-liverR1, 120 min/123.9 min actual): 0.0153 %ID/g
tissue uptake at 4 h ([1]; tumor lesion T4-liverR1, total radioactivity, patient FR01-009, tumor lesion T4-liverR1, 240 min/207.9 min actual): 0.0116 %ID/g
tissue uptake at 0.25 h ([1]; tumor lesion T5-liverR2, total radioactivity, patient FR01-009, tumor lesion T5-liverR2, 15 min/17.8 min actual): 0.015 %ID/g
tissue uptake at 1 h ([1]; tumor lesion T5-liverR2, total radioactivity, patient FR01-009, tumor lesion T5-liverR2, 60 min/60.7 min actual): 0.0193 %ID/g
tissue uptake at 2 h ([1]; tumor lesion T5-liverR2, total radioactivity, patient FR01-009, tumor lesion T5-liverR2, 120 min/123.9 min actual): 0.022 %ID/g
tissue uptake at 4 h ([1]; tumor lesion T5-liverR2, total radioactivity, patient FR01-009, tumor lesion T5-liverR2, 240 min/207.9 min actual): 0.0212 %ID/g
tissue uptake at 0.25 h ([1]; tumor lesion T6-sacrumL, total radioactivity, patient FR01-009, 15 min/17.8 min actual): 0.00315 %ID/g
tissue uptake at 1 h ([1]; tumor lesion T6-sacrumL, total radioactivity, patient FR01-009, 60 min/60.7 min actual): 0.00289 %ID/g
tissue uptake at 2 h ([1]; tumor lesion T6-sacrumL, total radioactivity, patient FR01-009, 120 min/123.9 min actual): 0.00254 %ID/g
tissue uptake at 4 h ([1]; tumor lesion T6-sacrumL, total radioactivity, patient FR01-009, 240 min/207.9 min actual): 0.00188 %ID/g
tissue uptake at 0.25 h ([1]; tumor lesion T7-liverP, total radioactivity, patient FR01-009, 15 min/17.8 min actual): 0.0122 %ID/g
tissue uptake at 1 h ([1]; tumor lesion T7-liverP, total radioactivity, patient FR01-009, 60 min/60.7 min actual): 0.0118 %ID/g
tissue uptake at 2 h ([1]; tumor lesion T7-liverP, total radioactivity, patient FR01-009, 120 min/123.9 min actual): 0.0124 %ID/g
tissue uptake at 4 h ([1]; tumor lesion T7-liverP, total radioactivity, patient FR01-009, 240 min/207.9 min actual): 0.0108 %ID/g
tissue uptake at 0.25 h ([1]; tumor lesion T8-liverR, total radioactivity, patient FR01-009, 15 min/17.8 min actual): 0.0108 %ID/g
tissue uptake at 1 h ([1]; tumor lesion T8-liverR, total radioactivity, patient FR01-009, 60 min/60.7 min actual): 0.00961 %ID/g
tissue uptake at 2 h ([1]; tumor lesion T8-liverR, total radioactivity, patient FR01-009, 120 min/123.9 min actual): 0.0109 %ID/g
tissue uptake at 0.25 h ([1]; urinary bladder wall, total radioactivity, patient FR01-008, 15 min/38.6 min actual): 0.0313 %ID/g
tissue uptake at 1 h ([1]; urinary bladder wall, total radioactivity, patient FR01-008, 60 min/62.6 min actual): 0.0426 %ID/g
tissue uptake at 2 h ([1]; urinary bladder wall, total radioactivity, patient FR01-008, 120 min/123.2 min actual): 0.0214 %ID/g
tissue uptake at 4 h ([1]; urinary bladder wall, total radioactivity, patient FR01-008, 240 min/221.1 min actual): 0.0179 %ID/g
tissue uptake at 0.25 h ([1]; urinary bladder wall, total radioactivity, patient FR01-009, 15 min/17.8 min actual): 0.0268 %ID/g
tissue uptake at 1 h ([1]; urinary bladder wall, total radioactivity, patient FR01-009, 60 min/60.7 min actual): 0.0648 %ID/g
tissue uptake at 2 h ([1]; urinary bladder wall, total radioactivity, patient FR01-009, 120 min/123.9 min actual): 0.0405 %ID/g
tissue uptake at 4 h ([1]; urinary bladder wall, total radioactivity, patient FR01-009, 240 min/207.9 min actual): 0.11 %ID/g
Relative radiotracer uptake ([1]; patient FR01-008, Alveolar-interstitial (Lungs), 15 min/38.6 min actual): 2.1842E-03 %ID/g
Relative radiotracer uptake ([1]; patient FR01-008, Alveolar-interstitial (Lungs), 60 min/62.6 min actual): 9.4759E-04 %ID/g
Relative radiotracer uptake ([1]; patient FR01-008, Alveolar-interstitial (Lungs), 120 min/123.2 min actual): 6.7856E-04 %ID/g
Relative radiotracer uptake ([1]; patient FR01-008, Alveolar-interstitial (Lungs), 240 min/221.1 min actual): 6.2082E-04 %ID/g
Relative radiotracer uptake ([1]; patient FR01-008, Heart wall, 15 min/38.6 min actual): 6.0002E-03 %ID/g
Relative radiotracer uptake ([1]; patient FR01-008, Heart wall, 60 min/62.6 min actual): 2.4054E-03 %ID/g
Relative radiotracer uptake ([1]; patient FR01-008, Heart wall, 120 min/123.2 min actual): 1.6323E-03 %ID/g
Relative radiotracer uptake ([1]; patient FR01-008, Heart wall, 240 min/221.1 min actual): 1.3018E-03 %ID/g
Relative radiotracer uptake ([1]; patient FR01-008, Kidneys, 15 min/38.6 min actual): 6.8821E-03 %ID/g
Relative radiotracer uptake ([1]; patient FR01-008, Kidneys, 60 min/62.6 min actual): 5.7654E-03 %ID/g
Relative radiotracer uptake ([1]; patient FR01-008, Kidneys, 120 min/123.2 min actual): 2.3856E-03 %ID/g
Relative radiotracer uptake ([1]; patient FR01-008, Kidneys, 240 min/221.1 min actual): 1.4872E-03 %ID/g
Relative radiotracer uptake ([1]; patient FR01-008, Spleen, 240 min/221.1 min actual): 1.2014E-03 %ID/g
Relative radiotracer uptake ([1]; patient FR01-008, tumor lesion T1-Chest, 15 min/38.6 min actual): 3.4664E-03 %ID/g
Relative radiotracer uptake ([1]; patient FR01-008, tumor lesion T1-Chest, 60 min/62.6 min actual): 2.1832E-03 %ID/g
Relative radiotracer uptake ([1]; patient FR01-008, tumor lesion T1-Chest, 120 min/123.2 min actual): 1.4935E-03 %ID/g
Relative radiotracer uptake ([1]; patient FR01-008, tumor lesion T1-Chest, 240 min/221.1 min actual): 1.2884E-03 %ID/g
Relative radiotracer uptake ([1]; patient FR01-008, tumor lesion T2-Left rib, 15 min/38.6 min actual): 3.8441E-03 %ID/g
Relative radiotracer uptake ([1]; patient FR01-008, tumor lesion T2-Left rib, 60 min/62.6 min actual): 2.5064E-03 %ID/g
Relative radiotracer uptake ([1]; patient FR01-008, tumor lesion T2-Left rib, 120 min/123.2 min actual): 1.7251E-03 %ID/g
Relative radiotracer uptake ([1]; patient FR01-008, tumor lesion T2-Left rib, 240 min/221.1 min actual): 1.6681E-03 %ID/g
Relative radiotracer uptake ([1]; patient FR01-008, tumor lesion T3-Spine, 15 min/38.6 min actual): 4.6895E-03 %ID/g
Relative radiotracer uptake ([1]; patient FR01-008, tumor lesion T3-Spine, 60 min/62.6 min actual): 2.2489E-03 %ID/g
Relative radiotracer uptake ([1]; patient FR01-008, tumor lesion T3-Spine, 120 min/123.2 min actual): 1.8497E-03 %ID/g
Relative radiotracer uptake ([1]; patient FR01-008, tumor lesion T3-Spine, 240 min/221.1 min actual): 1.9539E-03 %ID/g
SUV ([2]; lesion / region of reference): ~1 SUV
SUV ([2]; lesion / spleen or MBP (aorta or heart)): > 1 SUV
internalization upon binding to the specific receptor [3]: low degree of internalization
affinity to the GRPR [4]: high affinity
calculated human dose extrapolated from animal model [5]: 0.039 mSv/MBq
